Test results published in patent CN108640991A (JIANGSU QYUNS BIOMEDICINE CO LTD, dated 2018).
One block for each binder: values may come before it.

Biological target: T1, 人白介素17A (Human Interleukin-17A) (human, UniProt Q16552 24-155)
T1 construct: also called hIL-17A; IL-17A
Test: SPR Biacore T200, 25°C, antibody captured on Protein A CM5 chip, antigen in solution, 1:1 model

T1 sequence (Q16552 24-155): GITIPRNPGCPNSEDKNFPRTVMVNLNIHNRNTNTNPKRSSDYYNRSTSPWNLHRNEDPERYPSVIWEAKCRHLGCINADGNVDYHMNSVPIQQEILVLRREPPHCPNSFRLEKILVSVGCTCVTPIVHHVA

Kd: 0.0154 nM
koff: 2.58e-05 s⁻¹
kon: 1.7e+06 M⁻¹ s⁻¹
B1: Ixekizumab (antibody, V domains shown)
VH: QVQLVQSGAEVKKPGSSVKVSCKASGYSFTDYHIHWVRQAPGQGLEWMGVINPMYGTTDYNQRFKGRVTITADESTSTAYMELSSLRSEDTAVYYCARYDYFTGTGVYWGQGTLVTVSS
VL: DIVMTQTPLSLSVTPGQPASISCRSSRSLVHSRGNTYLHWYLQKPGQSPQLLIYKVSNRFIGVPDRFSGSGSGTDFTLKISRVEAEDVGVYYCSQSTHLPFTFGQGTKLEIKR

Kd: 0.00707 nM
koff: 2.36e-05 s⁻¹
kon: 3.35e+06 M⁻¹ s⁻¹
B2: 抗人白介素17A单克隆抗体QX002N (antibody, V domains shown)
VH: EVQLQESGPGLVKPSETLSLTCTVSGIDLSLFYMSWIRQPPGKGLEWIGTIHEVASSYYASWAKGRVTISKDTSKNQFSLKLSSVTAADTAVYYCARETYSSRYPYPNIWGQGTLVTVSS
VL: DIQMTQSPSSVSASVGDRVTITCQASQNIGGSLAWYQQKPGKAPKLLIYGASSLASGVPSRFSGSGSGTDFTLTISSLQPEDFATYYCQSYNTISTYGLAFGGGTKVEIK
notes: Humanised from rabbit clone 37#; also called 37-5
